Laboratory results: the supplement of paper PMC10201428
± gives the standard deviation of the averaged measurements.

B1: library; a variant is named by its letters at N, in order (parent)
chain: AATGTTGTTGATGCAACCATAAAGTGATATTTAATAATTATTTATAATCAGCAACTTAACCACAAAACAACCATATATTGATATNTCACAAAACAACCATAANTTGATATTTTTGTGAATCGAGTATTTCAGCAAAACTACTGCAGTAAGAA

How the values were obtained:
[1] = variants of: B1; test: relative integration efficiency (T-LR orientation) vs wild-type transposon end (log2 (normalized fold change)); transposon end mutated: left end; higher = more efficient transposition; conditions: with VchCAST RNA-guided transposition machinery (E. coli BL21(DE3) host, lacZ target)
Summary of the method: (§1)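 Barcode abundances in input plasmids and in genomic integration junctions were obtained by PCR amplification and Illumina sequencing. These came from E. coli BL21(DE3) co-transformed with a T7-driven effector plasmid and a pUC57 donor carrying 1549 left-end or 1849 right-end transposon variants, then plated with 0.1 mM IPTG at 37°C for 18 h. Relative integration efficiency is the output/input fold change, normalised to reference barcodes and log-transformed.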

[2] = variants of: B1; test: relative integration efficiency (T-RL orientation) vs wild-type transposon end (log2 (normalized fold change)); transposon end mutated: left end; higher = more efficient transposition; conditions: with VchCAST RNA-guided transposition machinery (E. coli BL21(DE3) host, lacZ target)
Summary of the method: as §1

Variant: CG C71A C72A A73C T74G
- relative integration efficiency (log2) [1]: -2.28 ± 1.8
- relative integration efficiency (log2) [2]: -2.51 ± 1

Variant: CG C98G A99T
- relative integration efficiency (log2) [1]: -1.62 ± 0.4
- relative integration efficiency (log2) [2]: -1.51 ± 0.56

Variant: CG G13C C14G A15T A16T
- relative integration efficiency (log2) [1]: -1.69 ± 1.2
- relative integration efficiency (log2) [2]: -1.03 ± 0.47

Variant: CG C89A
- relative integration efficiency (log2) [1]: 0.447 ± 0.3
- relative integration efficiency (log2) [2]: 0.031 ± 0.013

Variant: CG C89T
- relative integration efficiency (log2) [1]: 0.203 ± 0.062
- relative integration efficiency (log2) [2]: -0.158 ± 0.031

Variant: CG C89G
- relative integration efficiency (log2) [1]: 0.0739 ± 0.015
- relative integration efficiency (log2) [2]: -0.315 ± 0.029

Variant: CG C63G A64T A65T A66T
- relative integration efficiency (log2) [1]: 0.34 ± 0.24
- relative integration efficiency (log2) [2]: 0.217 ± 0.0048

Variant: CG G26T A27C
- relative integration efficiency (log2) [1]: -0.945 ± 0.26
- relative integration efficiency (log2) [2]: -1.68 ± 0.7

Variant: CG T6C
- relative integration efficiency (log2) [1]: -1.5 ± 1
- relative integration efficiency (log2) [2]: -2.65 ± 0.37

Variant: CG T6A
- relative integration efficiency (log2) [1]: < -10
- relative integration efficiency (log2) [2]: -6.68 ± 0.076

Variant: CG G26C A27T
- relative integration efficiency (log2) [1]: -3.33 ± 1.1
- relative integration efficiency (log2) [2]: -2.12 ± 0.85

Variant: CG C71G C72G A73T T74A
- relative integration efficiency (log2) [1]: -1.87 ± 0.61
- relative integration efficiency (log2) [2]: -2.18 ± 0.97

Variant: CG G117T A118C
- relative integration efficiency (log2) [1]: 0.251 ± 0.35
- relative integration efficiency (log2) [2]: 0.0866 ± 0.029

Variant: CG C60G C61G
- relative integration efficiency (log2) [1]: 0.337 ± 0.57
- relative integration efficiency (log2) [2]: -0.185 ± 0.23

Variant: CG C97A C98A
- relative integration efficiency (log2) [1]: -1.76 ± 0.82
- relative integration efficiency (log2) [2]: -1.7 ± 0.77

Variant: CG G4T T5G T6G G7T
- relative integration efficiency (log2) [1]: < -10
- relative integration efficiency (log2) [2]: -6.583 ± 0.046

Variant: CG C121A G122T A123C G124T T125G
- relative integration efficiency (log2) [1]: 0.905 ± 0.042
- relative integration efficiency (log2) [2]: 0.666 ± 0.12

Variant: CG T12A G13A T30A T31C T32A A77C T86G
- relative integration efficiency (log2) [1]: -0.4 ± 0.61
- relative integration efficiency (log2) [2]: -0.303 ± 0.3

Variant: CG G26A
- relative integration efficiency (log2) [1]: -0.184 ± 0.65
- relative integration efficiency (log2) [2]: -0.427 ± 0.47

Variant: CG G26C
- relative integration efficiency (log2) [1]: -1.96 ± 1.7
- relative integration efficiency (log2) [2]: -1.36 ± 0.65

Variant: CG G26T
- relative integration efficiency (log2) [1]: -0.577 ± 1.1
- relative integration efficiency (log2) [2]: -0.329 ± 0.41

Variant: CG G24C T78A T104A
- relative integration efficiency (log2) [1]: -0.403 ± 0.24
- relative integration efficiency (log2) [2]: -0.396 ± 0.19

Variant: CG T12A G13A T30A T32A A77C T86G
- relative integration efficiency (log2) [1]: -0.499 ± 0.21
- relative integration efficiency (log2) [2]: -0.36 ± 0.22

Variant: CG G24T
- relative integration efficiency (log2) [1]: 0.871 ± 0.023
- relative integration efficiency (log2) [2]: 0.72 ± 0.19

Variant: CG G24C
- relative integration efficiency (log2) [1]: -0.15 ± 0.17
- relative integration efficiency (log2) [2]: -0.164 ± 0.021

Variant: CG G24A
- relative integration efficiency (log2) [1]: 0.726 ± 0.12
- relative integration efficiency (log2) [2]: 0.3 ± 0.075

Variant: CG C71T
- relative integration efficiency (log2) [1]: -0.49 ± 0.49
- relative integration efficiency (log2) [2]: -0.408 ± 0.23

Variant: CG C71G
- relative integration efficiency (log2) [1]: -0.452 ± 0.8
- relative integration efficiency (log2) [2]: -0.253 ± 0.4

Variant: CG C71A
- relative integration efficiency (log2) [1]: -0.709 ± 0.022
- relative integration efficiency (log2) [2]: -0.461 ± 0.26

Variant: CG G7T
- relative integration efficiency (log2) [1]: -4.09 ± 0.17
- relative integration efficiency (log2) [2]: -2.59 ± 0.72

Variant: CG G7A
- relative integration efficiency (log2) [1]: -0.532 ± 0.023
- relative integration efficiency (log2) [2]: -0.156 ± 0.15

Variant: CG G7C
- relative integration efficiency (log2) [1]: -0.0662 ± 0.49
- relative integration efficiency (log2) [2]: -0.11 ± 0.25

Variant: CG T3G G4T T5G T6G
- relative integration efficiency (log2) [1]: < -10
- relative integration efficiency (log2) [2]: -7.767 ± 0.04

Variant: CG C60G C61G A62T C63G
- relative integration efficiency (log2) [1]: 0.27 ± 0.29
- relative integration efficiency (log2) [2]: -0.0479 ± 0.14

Variant: CG C89G A90T
- relative integration efficiency (log2) [1]: 0.739 ± 0.17
- relative integration efficiency (log2) [2]: 0.378 ± 0.24

Variant: CG G13C C14G
- relative integration efficiency (log2) [1]: -0.831 ± 0.62
- relative integration efficiency (log2) [2]: -0.232 ± 0.36

Variant: CG T20A A21T
- relative integration efficiency (log2) [1]: -0.406 ± 0.45
- relative integration efficiency (log2) [2]: -0.483 ± 0.31

Variant: CG C87G A88T C89G A90T
- relative integration efficiency (log2) [1]: 0.251 ± 0.48
- relative integration efficiency (log2) [2]: -0.077 ± 0.18

Variant: CG G115C T116A G117C A118T
- relative integration efficiency (log2) [1]: 0.334 ± 0.11
- relative integration efficiency (log2) [2]: -0.12 ± 0.028

Variant: CG C63A A64C A65C A66C
- relative integration efficiency (log2) [1]: -0.236 ± 0.15
- relative integration efficiency (log2) [2]: -0.189 ± 0.012

Variant: CG G117T
- relative integration efficiency (log2) [1]: -0.0744 ± 0.017
- relative integration efficiency (log2) [2]: -0.0764 ± 0.036

Variant: CG G117C
- relative integration efficiency (log2) [1]: -0.761 ± 0.33
- relative integration efficiency (log2) [2]: -0.41 ± 0.12

Variant: CG G117A
- relative integration efficiency (log2) [1]: -0.315 ± 0.5
- relative integration efficiency (log2) [2]: -0.123 ± 0.016

Variant: CG C61A A62C C63A A64C
- relative integration efficiency (log2) [1]: -0.0245 ± 0.0054
- relative integration efficiency (log2) [2]: 0.137 ± 0.14

Variant: TG G24A T30A T76A A77G C87T
- relative integration efficiency (log2) [1]: 0.724 ± 0.54
- relative integration efficiency (log2) [2]: 0.0845 ± 0.24

Variant: CG T12A G13A T30A A77C T86G
- relative integration efficiency (log2) [1]: -0.394 ± 0.45
- relative integration efficiency (log2) [2]: -0.113 ± 0.12

Variant: CG T25A T79A T105A
- relative integration efficiency (log2) [1]: -3.4 ± 0.079
- relative integration efficiency (log2) [2]: -1.88 ± 0.86

Variant: CG T9A G10C
- relative integration efficiency (log2) [1]: -2.248 ± 0.0027
- relative integration efficiency (log2) [2]: -0.479 ± 0.16

Variant: CG T12A G13A T31C A77C T86G
- relative integration efficiency (log2) [1]: -0.319 ± 0.56
- relative integration efficiency (log2) [2]: -0.196 ± 0.058

Variant: CG C68A
- relative integration efficiency (log2) [1]: -0.255 ± 0.47
- relative integration efficiency (log2) [2]: -0.433 ± 0.32

Variant: CG C68T
- relative integration efficiency (log2) [1]: -1.08 ± 0.81
- relative integration efficiency (log2) [2]: -0.627 ± 0.41

Variant: CG C68G
- relative integration efficiency (log2) [1]: -0.736 ± 0.69
- relative integration efficiency (log2) [2]: -0.831 ± 0.36

Variant: CG T12A G13A
- relative integration efficiency (log2) [1]: -0.256 ± 0.34
- relative integration efficiency (log2) [2]: -0.294 ± 0.04

Variant: CG T12A G13C
- relative integration efficiency (log2) [1]: 0.233 ± 0.21
- relative integration efficiency (log2) [2]: -0.107 ± 0.067

Variant: CG G122T A123C G124T T125G
- relative integration efficiency (log2) [1]: 0.252 ± 0.21
- relative integration efficiency (log2) [2]: 0.127 ± 0.054

Variant: CG C55A T56G
- relative integration efficiency (log2) [1]: -0.293 ± 0.89
- relative integration efficiency (log2) [2]: 0.0947 ± 0.38

Variant: CG C97G C98G A99T T100A
- relative integration efficiency (log2) [1]: -0.482 ± 0.85
- relative integration efficiency (log2) [2]: -1.36 ± 0.79

Variant: CG C68G A69T A70T C71G
- relative integration efficiency (log2) [1]: -0.963 ± 0.71
- relative integration efficiency (log2) [2]: -1.93 ± 0.91
